What was measured:
Assay in all cases: co-immunoprecipitation (IP: HA, blot: Flag)
Settings in all cases: 293T cells; parent: 1.00
[1] = target: HA-Exo70(S59D)
[2] = target: HA-Exo70(S47D)
[3] = target: HA-Exo70(S47D/S59D)

Substance: Exo70 wild type, HA-tagged and Flag-tagged copies co-expressed (from UniProt O54922) S59D
- response (relative band intensity) [1]: 1

Substance: Exo70 wild type, HA-tagged and Flag-tagged copies co-expressed (from UniProt O54922) S47D
- response (relative band intensity) [2]: 1

Substance: Exo70 wild type, HA-tagged and Flag-tagged copies co-expressed (from UniProt O54922) S47D; S59D
- response (relative band intensity) [3]: 0.96

Source: PMC6949295 (2020)
